Measured values taken from patent US8614103B2, “Compositions and methods for treating sphingosine-1-phosphate (S1P) related ocular diseases and conditions” (Lpath, Inc., priority 2006, dated 2013).

Key:
[1] = Competitive ELISA for specificity / cross-reactivity against bioactive lipids; type: binding; details: for cross-reactivity to sphingosylphosphorylcholine (SPC): competitor SPC
Protocol: Screening of serum and cell supernatant for S1P-specific antibodies was by direct ELISA using a thiolated SIP analog as the antigen. A standard ELISA was performed, as described below, except that 50 ul of sample (serum or cell supernatant) was diluted with an equal volume of PBS/0.1% Tween-20 (PBST) during the primary incubation. ELISAs were performed in 96-well high binding ELISA plates (Costar) coated with 0.1 μg of chemically-synthesized thiolated-S1P conjugated to BSA in binding buffer (33.6 mM Na2CO3, 100 mM NaHCO3; pH 9.5). The thiolated-S1P-BSA was incubated at 37° C. for 1 hr. at 4° C. overnight in the ELISA plate wells. The plates were then washed four times with PBS (137 mM NaCl, 2.68 mM KCl, 10.14 mM Na2HPO4, 1.76 mM KH2PO4; pH 7.4) and blocked with PBST for 1 hr. at room temperature. For the primary incubation step, 75 uL of the sample (containing the S1P to be measured), was incubated with 25 uL of 0.1 ug/mL anti-S1P mAb diluted in PBST and added to a well of the ELISA plate. Each sample was performed in triplicate wells. Following a 1 hr. incubation at room temperature, the ELISA plates were washed four times with PBS and incubated with 100 ul per well of 0.1 ug/mL HRP goat anti-mouse secondary (Jackson Immunoresearch) for 1 hr. at room temperature. Plates were then washed four times with PBS and exposed to tetramethylbenzidine (Sigma) for 1-10 minutes. The detection reaction was stopped by the addition of an equal volume of 1M H2SO4. Optical density of the samples was determined by measurement at 450 nm using an EL-X-800 ELISA plate reader (Bio-Tech).
For cross reactivity, a competitive ELISA was performed as described above, except for the following alterations. The primary incubation consisted of the competitor (S1P, SPH, LPA, etc.) and a biotin-conjugated anti-S1P mAb. Biotinylation of the purified monoclonal antibody was performed using the EZ-Link Sulfo-NHS-Biotinylation kit (Pierce). Biotin incorporation was determined as per kit protocol and ranged from 7 to 11 biotin molecules per antibody. The competitor was prepared as follows: lipid stocks were sonicated and dried under argon before reconstitution in DPBS/BSA [1 mg/ml fatty acid free BSA (Calbiochem) in DPBS (Invitrogen 14040-133)]. Purified anti-S1P mAb was diluted as necessary in PBS/0.5% Triton X-100. Competitor and antibody solutions were mixed together so to generate 3 parts competitor to 1 part antibody. A HRP-conjugated streptavidin secondary antibody (Jackson Immunoresearch) was used to generate signal.
The humanized variants were tested for specificity in a competitive ELISA assay (FIG. 1) against S1P and several other biolipids. This assay has the added benefit to allow for epitope mapping.

[2] = Stability after thermochallenge (TM); type: physicochemical; details: thermochallenge of supernatants
Protocol: The humanized variants were tested for stability after challenge at high temperature. The approximate midpoints of the thermal unfolding transitions (TM) were determined for every humanized variant by subjecting the supernatants to temperatures ranging from 60 to 74° C. These temperatures were chosen based on the denaturation profile observed for the murine antibody molecule after thermochallenging between a broad range of temperatures between 50 and 80° C. The binding properties of each variant were determined before and after thermochallenge.

HUVECs = experiment: HUVEC tube formation on Matrigel; type: cell-based, human; details: co-incubated with S1P; GF-reduced Matrigel
Protocol: Experiments were performed as described by Visentin et al. (Cancer Cell 2006 March; 9(3):225-38).

[3] = test system: fibroblasts (Swiss 3T3, cardiac fibroblasts, WI-38); experiment: S1P-stimulated fibroblast proliferation, migration, collagen expression, myofibroblast differentiation; type: cell-based; details: 1 μg/mL antibody; 0.1-1 μM S1P
Protocol: See Example 7, below, for experimental details. […] In these experiments, fibroblasts were serum-starved and then treated with 0, 0.1, 0.5, or 1 μM S1P+/−1 μg/mL SPHINGOMAB for 12-24 hr. […] SPHINGOMAB neutralized each of these S1P effects. SPHINGOMAB reduced perivascular fibrosis in vivo in a murine model of a permanent myocardial infarction (E).
S1P makes profound contributions to wound healing by activating fibroblast migration, proliferation and collagen production; SPHINGOMAB neutralizes these effects. Several studies using multiple types of fibroblasts confirm S1P's ability to promote wound healing: 1) S1P increased Swiss-3T3 fibroblast proliferation as measured by ^3H-thymidine incorporation using standard methods (FIG. 7A); 2) S1P promoted the migration of cardiac fibroblasts in a standard scratch wound healing assay. […] In each of these assays, SPHINGOMAB neutralized S1P's. It is anticipated that ocular fibroblasts would respond similarly to S1P and SPHINGOMAB.

perivascular fibrosis = experiment: Permanent myocardial infarction model, perivascular fibrosis; type: in vivo, mouse; details: 25 mg/kg from 48 hrs after surgery; two weeks
Protocol: Studies evaluated the efficacy of SPHINGOMAB to reduce cardiac scar formation after permanent myocardial infarction (MI) via ligation of the left descending coronary artery in mice. Systemic administration of 25 mg/kg SPHINGOMAB or saline was initiated 48 hrs after surgery. Antibody administration at 48 hr. was chosen to allow normal, reparative scar formation to occur during the early remodeling phase and permit beneficial, S1P-stimulated angiogenesis immediately after the MI. Two weeks after the infarct, mice were sacrificed and fibrosis was accessed by Masson's trichrome staining of the cardiac tissue. […] As a control for any non-specific wound-healing responses, sham animals underwent thoracotomy without coronary artery ligation (FIG. 7E).

[4] = test system: macrophage and mast cell infiltration; experiment: Murine infarct model, immune cell infiltration; type: in vivo, mouse; details: 25 mg/kg; four days post-MI
Protocol: SPHINGOMAB reduced immune-cell wound infiltration in vivo. Mice were subjected to MI, treated with saline or 25 mg/kg SPHINGOMAB 48 hr. after surgery and then sacrificed on day 4. SPHINGOMAB reduced macrophage (A) and mast cell (B) infiltration into the wound. Data are represented as fold decrease of saline-treated values.
Based upon the similarities of immune and inflammatory responses in CNV and CVD, the efficacy of SPHINGOMAB to mitigate immune cell infiltration into a wound was evaluated in a murine infarct model as an indication of SPHINGOMAB's potential effects in mitigating these damages during AMD [Vine, et al. (2005), Opthalmology, vol 112: 2076-80; and Seddon and Chen (2004), Int Opthalmol Clin, vol 44: 17-39]. Four days post-MI, macrophage and mast cell infiltration was evaluated using MAC-1 and MCG35 antibodies, respectively, within the area at risk.

B1: LT1002: murine monoclonal antibody to S1P, IgG1 kappa, hybridoma clone 306D326.26 (antibody, listed as Mus sp., V domains shown)
VH: QAHLQQSDAELVKPGASVKISCKVSGFIFIDHTIHWMKQRPEQGLEWIGCISPRHDITKYNEMFRGKATLTADKSSTTAYIQVNSLTFEDSAVYFCARGGFYGSTIWFDFWGQGTTLTVS
VL: ETTVTQSPASLSMAIGEKVTIRCITTTDIDDDMNWFQQKPGEPPNLLISEGNILRPGVPSRFSSSGYGTDFLFTIENMLSEDVADYYCLQSDNLPFTFGSGTKLEIK
[1]; Table 7
  Specificity (ELISA): High
[1]; competitor C1P, listed as anti-S1P mAb
  recognition of ceramide-1-phosphate (C1P): no antibody binding was observed
[1]; competitor DH-S1P
  cross-reactivity to dihydrosphingosine-1-phosphate (DH-S1P): did cross react
[1]; competitor LPA, listed as anti-S1P mAb
  cross-reactivity to lysophosphatidic acid (LPA): exhibited no binding
[1]; listed as SPHINGOMAB
  cross-reactivity to sphingosylphosphorylcholine (SPC): to a lesser extent
[1]; listed as anti-S1P mAb
  cross-reactivity to sphingosylphosphorylcholine (SPC): binding was somewhat reduced
[2]
  TM (approximate midpoint of the thermal unfolding transition): 65 °C
HUVECs
  capillary-like structure (tube) formation: failed to form capillary-like structures
[3]
  effect on S1P-stimulated fibroblast proliferation, migration, collagen expression, myofibroblast differentiation: neutralized
Perivascular fibrosis
  perivascular fibrosis after MI: almost complete abrogation of perivascular fibrosis
[4]
  density of inflammatory macrophages: dramatically attenuated
  density of mast cells: dramatically attenuated
